Measured values published in doi:10.1101/2023.01.08.523187 (bioRxiv, 2023).
Positions count from the first letter of the chain named.

B1: Candidate 2 (de novo designed HCDR3, IgG1 mAb) (antibody, V domains shown)
VH: EVQLVESGGGLVQPGGSLRLSCAASGFNIKDTYIHWVRQAPGKGLEWVARIYPTNGYTRYADSVKGRFTISADTSKNTAYLQMNSLRAEDTAVYYCARYYYGFYYFDYWGQGTLVTVSS
VL: not shown
B2: Candidate 3 (de novo designed HCDR3, IgG1 mAb) (antibody, V domains shown)
VH: B1 VH with Y99W, Y100G, Y101N, G102Y, F103Y, F106M
VL: not shown

Key:
Canine HER2 = Canine HER2 (Canis lupus familiaris, UniProt O18735); assay: SPR
[1] = molecular target: HER2 on HER2+ SK-OV-3 ovarian cancer cells (Homo sapiens, SK-OV-3 cells, UniProt P04626); assay: ELISA
[2] = molecular target: Wildtype HER2 domain IV fragment (residues 510-629 of human HER2) (Homo sapiens, UniProt P04626); assay: SPR

| Binder | binding result (Canine HER2) | fold change of EC50 against trastuzumab [1] | binding result [2] |
| --- | --- | --- | --- |
| B1 | binds | ~3 fold |  |
| B2 |  |  | binds |
